According to publication doi:10.1101/2024.06.07.597859 (bioRxiv, 2024):
Where “and” joins values, the source holds several entries; their conditions need not be identical. Identical values can stand only once.

Target: the molecule itself
Experiment: cross-linking

B1: Plasmodium falciparum tRNA-splicing endonuclease PfTSEN1 (enzyme, UniProt A0A144A1E9 1-220, looked up)
chain: MKIIYEFKKEYYEIILNENNADDNVIDLFEKNTNKCNIEIKPYDDINSDLLDFDQFKMFNIDKDDIKKKNEDKKDEDRIKYILDKESYNNSIDKLNDNSCDESCYITDDELCKQINNPFDNTYNNKFVVKYKEYFEENSFIVKKGDIYGADFLLYITEQKYAHSLYAVYIIYKHYILRDLIRILRVSHSIKKKVILILWNELNCFNISDTLVYIKSYKYK
**Q.** Which “stoichiometry N” value does the source give for B1 here?
**A.** 2 and 3 and 4
